Laboratory results from paper PMC3799435, “Dissecting the interactions of SERRATE with RNA and DICER-LIKE 1 in Arabidopsis microRNA precursor processing” (Nucleic Acids Research, 2013).

How the values were obtained:
[1] = biological target: DCL1 (Arabidopsis thaliana, UniProt Q9SP32 1-1909); assay: SPR; 50 mM NaCl; SPR (Biacore T100): 20 mM Tris-HCl pH 7.0, 50 or 150 mM NaCl, 2 mM β-ME (0.005% P20 for SE variants); proteins 42-43 nM (Fig 2E), SE 20 nM (Fig 4), 16 nM DCL1 for complex; temperature not stated; conditions: protein: recombinant; tags: none (His6-StrepII-SUMOstar removed); chain copies: 3; label: 5'-biotin on strand 1; fork: 40 bp duplex; 20-nt 3' tail of strand 1 and 20-nt 5' tail of strand 2 unpaired; other end blunt
Sequence of DCL1 (Q9SP32 whole entry): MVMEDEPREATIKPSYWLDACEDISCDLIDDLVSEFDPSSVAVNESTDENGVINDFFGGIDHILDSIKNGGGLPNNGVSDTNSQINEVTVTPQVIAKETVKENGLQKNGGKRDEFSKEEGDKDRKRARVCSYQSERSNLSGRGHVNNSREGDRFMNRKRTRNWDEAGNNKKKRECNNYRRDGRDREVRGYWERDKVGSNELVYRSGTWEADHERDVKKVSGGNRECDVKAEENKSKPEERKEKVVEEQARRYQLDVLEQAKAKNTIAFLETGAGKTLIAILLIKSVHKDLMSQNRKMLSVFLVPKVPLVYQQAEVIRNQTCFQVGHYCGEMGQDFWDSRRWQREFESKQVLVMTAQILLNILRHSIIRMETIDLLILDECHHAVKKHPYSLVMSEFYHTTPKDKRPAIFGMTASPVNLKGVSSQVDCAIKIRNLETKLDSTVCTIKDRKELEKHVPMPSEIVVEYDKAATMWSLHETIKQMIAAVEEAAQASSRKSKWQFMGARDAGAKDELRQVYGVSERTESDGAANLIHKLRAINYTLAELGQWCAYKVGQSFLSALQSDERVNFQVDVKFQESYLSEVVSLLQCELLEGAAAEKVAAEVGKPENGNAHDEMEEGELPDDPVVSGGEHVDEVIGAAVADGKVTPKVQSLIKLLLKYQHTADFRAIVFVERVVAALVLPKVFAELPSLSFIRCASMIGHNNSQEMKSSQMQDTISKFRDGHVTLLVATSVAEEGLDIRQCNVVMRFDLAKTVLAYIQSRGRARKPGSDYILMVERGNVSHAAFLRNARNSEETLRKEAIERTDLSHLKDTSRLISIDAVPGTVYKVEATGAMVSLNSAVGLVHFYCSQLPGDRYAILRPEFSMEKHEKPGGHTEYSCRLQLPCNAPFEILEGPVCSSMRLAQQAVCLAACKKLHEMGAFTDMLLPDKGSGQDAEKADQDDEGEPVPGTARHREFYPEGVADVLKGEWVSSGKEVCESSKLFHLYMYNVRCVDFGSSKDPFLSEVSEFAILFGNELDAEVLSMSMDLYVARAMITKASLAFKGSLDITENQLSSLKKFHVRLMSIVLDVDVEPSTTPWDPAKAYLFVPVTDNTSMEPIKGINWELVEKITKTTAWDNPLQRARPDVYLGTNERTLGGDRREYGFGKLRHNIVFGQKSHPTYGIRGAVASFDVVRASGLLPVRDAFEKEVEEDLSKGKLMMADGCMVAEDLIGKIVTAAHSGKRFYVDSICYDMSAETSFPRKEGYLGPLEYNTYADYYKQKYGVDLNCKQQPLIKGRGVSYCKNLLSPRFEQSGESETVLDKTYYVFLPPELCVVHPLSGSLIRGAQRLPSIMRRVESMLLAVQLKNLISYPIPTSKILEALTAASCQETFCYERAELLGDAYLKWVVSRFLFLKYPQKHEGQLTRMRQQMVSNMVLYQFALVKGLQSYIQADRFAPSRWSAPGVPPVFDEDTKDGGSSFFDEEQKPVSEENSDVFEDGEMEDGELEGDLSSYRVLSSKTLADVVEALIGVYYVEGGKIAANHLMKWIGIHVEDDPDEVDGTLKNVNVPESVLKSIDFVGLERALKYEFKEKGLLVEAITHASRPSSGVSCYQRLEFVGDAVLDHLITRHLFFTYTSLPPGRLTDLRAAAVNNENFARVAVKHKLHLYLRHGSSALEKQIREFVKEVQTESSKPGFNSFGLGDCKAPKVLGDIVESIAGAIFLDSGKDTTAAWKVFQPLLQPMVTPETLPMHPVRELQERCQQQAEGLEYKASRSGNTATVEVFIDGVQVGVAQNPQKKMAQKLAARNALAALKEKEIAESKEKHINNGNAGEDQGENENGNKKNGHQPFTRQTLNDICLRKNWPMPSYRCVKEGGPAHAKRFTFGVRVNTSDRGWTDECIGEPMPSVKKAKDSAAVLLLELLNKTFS

[2] = biological target: DCL1;SE (His-tagged) (Arabidopsis thaliana;Arabidopsis …, UniProt Q9SP32;Q9ZVD0 1-1909;1-720, |); assay: SPR; SE injected on preformed DCL1/RNA complex, 50 mM NaCl; SE:DCL1 2.4:1; SPR (Biacore T100): 20 mM Tris-HCl pH 7.0, 50 or 150 mM NaCl, 2 mM β-ME (0.005% P20 for SE variants); proteins 42-43 nM (Fig 2E), SE 20 nM (Fig 4), 16 nM DCL1 for complex; temperature not stated; conditions: protein: recombinant;recombinant; tags: none (His6-StrepII-SUMOstar removed);N-terminal His6; vector also has inserted myc and Strep-tag II; label: 5'-biotin on strand 1; fork: 40 bp duplex; 20-nt 3' tail of strand 1 and 20-nt 5' tail of strand 2 unpaired; other end blunt
Sequence of DCL1;SE (His-tagged) (Q9SP32 whole entry, one chain of several): as the sequence (Q9SP32 whole entry) above

[3] = biological target: DCL1;SE143-720 (Arabidopsis thaliana;Arabidopsis …, UniProt Q9SP32;Q9ZVD0 1-1909;143-720, |del1-142); assay: SPR; SE143-720 injected on preformed DCL1/RNA complex, 50 mM NaCl; SPR (Biacore T100): 20 mM Tris-HCl pH 7.0, 50 or 150 mM NaCl, 2 mM β-ME (0.005% P20 for SE variants); proteins 42-43 nM (Fig 2E), SE 20 nM (Fig 4), 16 nM DCL1 for complex; temperature not stated; conditions: protein: recombinant;recombinant; tags: none (His6-StrepII-SUMOstar removed);N-terminal His6; vector also has inserted myc and Strep-tag II; label: 5'-biotin on strand 1; fork: 40 bp duplex; 20-nt 3' tail of strand 1 and 20-nt 5' tail of strand 2 unpaired; other end blunt
Sequence of DCL1;SE143-720 (Q9SP32 whole entry, stated change not applied, one chain of several): as the sequence (Q9SP32 whole entry) above

[4] = biological target: T1, SE (His-tagged) (Arabidopsis thaliana, UniProt Q9ZVD0 1-720); assay: SPR; 50 mM NaCl, 20 nM protein; SPR (Biacore T100): 20 mM Tris-HCl pH 7.0, 50 or 150 mM NaCl, 2 mM β-ME (0.005% P20 for SE variants); proteins 42-43 nM (Fig 2E), SE 20 nM (Fig 4), 16 nM DCL1 for complex; temperature not stated; conditions: protein: recombinant; tags: N-terminal His6; vector also has inserted myc and Strep-tag II; label: 5'-biotin on strand 1; fork: 40 bp duplex; 20-nt 3' tail of strand 1 and 20-nt 5' tail of strand 2 unpaired; other end blunt
T1 sequence: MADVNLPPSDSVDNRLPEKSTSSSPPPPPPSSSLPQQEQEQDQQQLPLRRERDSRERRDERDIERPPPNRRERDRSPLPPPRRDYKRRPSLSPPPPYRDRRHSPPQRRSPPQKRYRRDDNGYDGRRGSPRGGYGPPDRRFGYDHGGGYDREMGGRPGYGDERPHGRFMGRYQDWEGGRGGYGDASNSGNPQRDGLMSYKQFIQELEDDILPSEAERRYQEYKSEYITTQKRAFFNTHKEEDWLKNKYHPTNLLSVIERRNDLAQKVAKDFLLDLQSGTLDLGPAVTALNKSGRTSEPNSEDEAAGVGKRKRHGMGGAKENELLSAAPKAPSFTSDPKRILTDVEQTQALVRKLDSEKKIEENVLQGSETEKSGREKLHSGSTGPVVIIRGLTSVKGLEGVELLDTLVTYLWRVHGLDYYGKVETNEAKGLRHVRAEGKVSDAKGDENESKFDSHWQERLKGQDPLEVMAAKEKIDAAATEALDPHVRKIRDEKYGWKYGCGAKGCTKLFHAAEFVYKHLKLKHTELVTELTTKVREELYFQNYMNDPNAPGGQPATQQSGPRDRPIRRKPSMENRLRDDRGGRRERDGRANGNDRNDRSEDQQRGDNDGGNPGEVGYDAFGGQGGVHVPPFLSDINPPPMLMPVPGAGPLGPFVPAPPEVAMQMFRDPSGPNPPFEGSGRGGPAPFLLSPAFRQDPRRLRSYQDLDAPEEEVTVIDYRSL

[5] = biological target: T2, SE143-720 (Arabidopsis thaliana, UniProt Q9ZVD0 143-720, del1-142); assay: as above; conditions: protein: recombinant; tags: N-terminal His6; vector also has inserted myc and Strep-tag II; label: 5'-biotin on strand 1; fork: 40 bp duplex; 20-nt 3' tail of strand 1 and 20-nt 5' tail of strand 2 unpaired; other end blunt
T2 sequence: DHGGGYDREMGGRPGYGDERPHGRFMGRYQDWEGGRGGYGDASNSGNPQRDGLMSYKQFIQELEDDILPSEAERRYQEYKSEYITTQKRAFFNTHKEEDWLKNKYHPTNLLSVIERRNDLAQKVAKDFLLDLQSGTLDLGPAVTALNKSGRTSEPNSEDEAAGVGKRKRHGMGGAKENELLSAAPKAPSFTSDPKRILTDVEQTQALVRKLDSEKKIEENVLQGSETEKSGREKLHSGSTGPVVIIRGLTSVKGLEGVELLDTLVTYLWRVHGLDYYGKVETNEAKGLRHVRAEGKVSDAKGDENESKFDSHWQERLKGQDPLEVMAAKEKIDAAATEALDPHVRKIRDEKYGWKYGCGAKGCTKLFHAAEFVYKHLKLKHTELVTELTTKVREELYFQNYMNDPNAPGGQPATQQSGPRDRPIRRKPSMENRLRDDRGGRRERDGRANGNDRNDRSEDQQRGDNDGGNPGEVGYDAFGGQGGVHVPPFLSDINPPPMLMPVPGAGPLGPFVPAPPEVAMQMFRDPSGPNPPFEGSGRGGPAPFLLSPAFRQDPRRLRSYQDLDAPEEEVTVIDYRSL

[6] = biological target: DCL1;SE1-701 (Arabidopsis thaliana;Arabidopsis …, UniProt Q9SP32;Q9ZVD0 1-1909;1-701, |del702-720); assay: SPR; SE1-701 injected on preformed DCL1/RNA complex, 50 mM NaCl; as wild-type SE; SPR (Biacore T100): 20 mM Tris-HCl pH 7.0, 50 or 150 mM NaCl, 2 mM β-ME (0.005% P20 for SE variants); proteins 42-43 nM (Fig 2E), SE 20 nM (Fig 4), 16 nM DCL1 for complex; temperature not stated; conditions: protein: recombinant;recombinant; tags: none (His6-StrepII-SUMOstar removed);N-terminal His6; vector also has inserted myc and Strep-tag II; label: 5'-biotin on strand 1; fork: 40 bp duplex; 20-nt 3' tail of strand 1 and 20-nt 5' tail of strand 2 unpaired; other end blunt
Sequence of DCL1;SE1-701 (Q9SP32 whole entry, stated change not applied, one chain of several): as the sequence (Q9SP32 whole entry) above

B1: forked-RNA (dsRNA)
RNA 1: CAACCCAAGAUAGAUCAUGCAGGCAGCUUCAUCAGAUGCCGCUCCCUCUUUUUUUCUCUA
RNA 2: GCUCCCUCUUUUUUUCUCUAGGCAUCUGAUGAAGCUGCCUGCAUGAUCUAUCUUGGGUUG
With B1 the binding result [1] was “binds”, the binding result [2] was “binds” and the binding signal [3] was 2 fold less RUmax vs wild-type SE. For the same binder, the binding result [4] was “binds”, the binding signal [5] was 6 fold reduction vs wild-type SE and the binding result [6] was “binds”.
